Assay results reported in paper PMC5636791, “Non-canonical reader modules of BAZ1A promote recovery from DNA damage”.
Substitutions are numbered along the chain they refer to.

Tests used:
BAZ1A-PHD [1] = target: T1, BAZ1A-PHD (human, UniProt Q9NRL2 1137-1202); test: BLI; conditions: n=6; value from figure text layer, assigned to the nucleosome panel; BLI: 50 mM Tris pH 7.5, 150 mM NaCl, 1 mM TCEP, 0.5% BSA, 0.01% Tween-20, 23 C; FP: 20 mM Tris pH 7.5, 150 mM NaCl, 1% glycerol, 0.5 mg/mL BSA, 0.05% Triton …
T1 sequence: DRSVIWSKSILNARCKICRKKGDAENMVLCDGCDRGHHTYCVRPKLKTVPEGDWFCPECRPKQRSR

BAZ1A-PHD [2] = target: T1, BAZ1A-PHD; test: BLI; n=10; BLI: 50 mM Tris pH 7.5, 150 mM NaCl, 1 mM TCEP, 0.5% BSA, 0.01% Tween-20, 23 C; FP: 20 mM Tris pH 7.5, 150 mM NaCl, 1% glycerol, 0.5 mg/mL BSA, 0.05% Triton X-100, RT, 50 nM probe; HDX: PBS pH 7.2, 5 C; conditions: protein: recombinant; tags: His6-FLAG N-terminal, removed (TEV/thrombin) for BLI; HDX construct tag-free with extra non-native residues; label: 5' biotin; blunt
BAZ1B-PHD A1227K/Y1229K = target: T2, BAZ1B-PHD A1227K/Y1229K (UniProt Q9UIG0 1172-1237, A1217K;Y1219K); test: BLI; BLI: 50 mM Tris pH 7.5, 150 mM NaCl, 1 mM TCEP, 0.5% BSA, 0.01% Tween-20, 23 C; FP: 20 mM Tris pH 7.5, 150 mM NaCl, 1% glycerol, 0.5 mg/mL BSA, 0.05% Triton X-100, RT, 50 nM probe; HDX: PBS pH 7.2, 5 C; conditions: protein: recombinant; tags: His6-FLAG N-terminal, removed for BLI; label: 5' biotin; blunt
T2 sequence: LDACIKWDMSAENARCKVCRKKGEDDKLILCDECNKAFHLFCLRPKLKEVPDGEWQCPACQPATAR

dAcf1-PHD(1) = target: T3, dAcf1-PHD(1) (Drosophila, UniProt Q9V9T4 1051-1115); test: as above; conditions: protein: recombinant; tags: His6-FLAG N-terminal, removed for BLI; label: 5' biotin; blunt
T3 sequence: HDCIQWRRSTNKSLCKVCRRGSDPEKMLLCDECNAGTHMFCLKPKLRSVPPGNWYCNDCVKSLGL

[3] = target: T4, BAZ1A-PHD K1181A/K1183Y (KAKY) (human, UniProt Q9NRL2 1137-1202, K1181A;K1183Y); test: as above; conditions: protein: recombinant; tags: His6-FLAG N-terminal, removed for BLI; label: 5' biotin; blunt
T4 sequence: T1 sequence with K45A, K47Y

BAZ1B-PHD = target: T5, BAZ1B-PHD (UniProt Q9UIG0 1172-1237); test: as above; conditions: protein: recombinant; tags: His6-FLAG N-terminal, removed for BLI; label: 5' biotin; blunt
T5 sequence: T2 sequence with K46A, K48Y

BAZ1A-PHD [4] = target: T1, BAZ1A-PHD; test: competition; fluorescence polarization, 5.3 uM protein, 50 nM labeled probe; IC50 not in text; BLI: 50 mM Tris pH 7.5, 150 mM NaCl, 1 mM TCEP, 0.5% BSA, 0.01% Tween-20, 23 C; FP: 20 mM Tris pH 7.5, 150 mM NaCl, 1% glycerol, 0.5 mg/mL BSA, 0.05% Triton X-100, RT, 50 nM probe; HDX: PBS pH 7.2, 5 C; conditions: protein: recombinant; tags: His6-FLAG N-terminal, removed (TEV/thrombin) for BLI; HDX construct tag-free with extra non-native residues; blunt
BAZ1A-PHD [5] = target: T1, BAZ1A-PHD; test: BLI; identical results to scrambled sequence; BLI: 50 mM Tris pH 7.5, 150 mM NaCl, 1 mM TCEP, 0.5% BSA, 0.01% Tween-20, 23 C; FP: 20 mM Tris pH 7.5, 150 mM NaCl, 1% glycerol, 0.5 mg/mL BSA, 0.05% Triton X-100, RT, 50 nM probe; HDX: PBS pH 7.2, 5 C; conditions: protein: recombinant; tags: His6-FLAG N-terminal, removed (TEV/thrombin) for BLI; HDX construct tag-free with extra non-native residues; label: 5' biotin; blunt
BAZ1A-PHD [6] = target: T1, BAZ1A-PHD; test: HDX-MS; 30 uM protein, 100 uM DNA; C-terminal region protected, incl. K1181 and K1183; BLI: 50 mM Tris pH 7.5, 150 mM NaCl, 1 mM TCEP, 0.5% BSA, 0.01% Tween-20, 23 C; FP: 20 mM Tris pH 7.5, 150 mM NaCl, 1% glycerol, 0.5 mg/mL BSA, 0.05% Triton X-100, RT, 50 nM probe; HDX: PBS pH 7.2, 5 C; conditions: protein: recombinant; tags: His6-FLAG N-terminal, removed (TEV/thrombin) for BLI; HDX construct tag-free with extra non-native residues; blunt

human biotinylated mononucleosome (EpiCypher)
Kd (BAZ1A-PHD [1]): 48 µM

B1: scrambled Widom-601 145 bp duplex (dsDNA)
DNA 1: CTTGCATCGATCCGATTGAACCATCGCTCGGTGACAGCTACGTGACTTAGTGTGCCCCATCGATCCAGTTCGATCACAGGCCACCTGAGTCGAGAGTATCGACACCCAGTGAACGATCGATCCGACTCGATCGCCTCACTGCTAG
DNA 2: CTAGCAGTGAGGCGATCGAGTCGGATCGATCGTTCACTGGGTGTCGATACTCTCGACTCAGGTGGCCTGTGATCGAACTGGATCGATGGGGCACACTAAGTCACGTAGCTGTCACCGAGCGATGGTTCAATCGGATCGATGCAAG
Kd (BAZ1A-PHD [2]): 51 ± 9 µM | binding result (BAZ1B-PHD A1227K/Y1229K): no binding | binding result (dAcf1-PHD(1)): no binding | binding result [3]: no binding | binding result (BAZ1B-PHD): no binding

B2: Widom-601 145 bp duplex, unlabeled (dsDNA)
DNA 1: ATCAGAATCCCGGTGCCGAGGCCGCTCAATTGGTCGTAGACAGCTCTAGCACCGCTTAAACGCACGTACGCGCTGTCCCCCGCGTTTTAACCGCCAAGGGGATTACTCCCTAGTCTCCAGGCACGTGTCAGATATATACATCGAT
DNA 2: ATCGATGTATATATCTGACACGTGCCTGGAGACTAGGGAGTAATCCCCTTGGCGGTTAAAACGCGGGGGACAGCGCGTACGTGCGTTTAAGCGGTGCTAGAGCTGTCTACGACCAATTGAGCGGCCTCGGCACCGGGATTCTGAT
binding result (BAZ1A-PHD [4]): binds

B3: Widom-601 145 bp duplex, biotinylated (dsDNA)
DNA 1: B2 DNA 1
DNA 2: B2 DNA 2
binding result (BAZ1A-PHD [5]): binds

B4: 20 bp HDX duplex (dsDNA)
DNA 1: ACTGACTCTGGACTACTGAG
DNA 2: CTCAGTAGTCCAGAGTCAGT
binding result (BAZ1A-PHD [6]): binds
